The values that follow come from patent publication US20200164059A1.

Test [1] addresses EBV gH/gL heterodimer, recombinant ectodomain (Epstein Barr virus). Put plainly: BLI kinetics, pH 7.4, ligand AMMO1Q1NHC Mab, analyte gH/gL; kon (1/Ms) x10^5. For orientation: In BLI a coated tip is dipped into the sample, and binding shifts an interference pattern.
The target is the same in test [2]. Put plainly: BLI kinetics, pH 7.4, ligand AMMO1Q1NHC Mab, analyte gH/gL; KD M x10^-9.
The target is the same in test [3]. Put plainly: BLI kinetics, pH 7.4, ligand AMMO1Q1NHC Mab, analyte gH/gL; KA M^-1 x10^7.
Test [4] shares this target. Put plainly: BLI kinetics, pH 7.4, ligand AMMO1Q1NHC Mab, analyte gH/gL; koff (1/s) x10^-3.
For test [5], the target named is T1, EBV gH/gL heterodimer, recombinant ectodomain (Epstein Barr virus). Description: BLI kinetics, pH 7.4, ligand gH/gL, analyte AMMO1 Fab; KD M x10^-9.
The target of test [6] is T1, EBV gH/gL heterodimer, recombinant …. Put plainly: BLI kinetics, pH 7.4, ligand gH/gL, analyte AMMO1 Fab; KA M^-1 x10^7.

Positions count from the first letter of the chain named. In names and notes the source's numbering stands.

B1: AMMO1 containing a Q1N heavy chain mutation (antibody, V domains shown)
VH: NVQLVQSGADVKKPGASVKVSCKASGYTFIHFGISWVRQAPGQGLEWMGWIDTNNGNTNYAQSLQGRVTMTTDTSTGTAYMELRSLSTDDTAVYFCARALEMGHRSGFPFDYWGQGVLVTVSP
VL: SYELTQPPSVSVAPGQRATITCGGHNIGAKNVHWYQQKPGQAPVLVIQYDSDRPSGIPERFSGSNSGSTATLTISRVEAGDEADYYCQVWDSGRGHPLYVFGGGTKVTVL
What is called kon is a measure of how fast the partners come together. As a reminder, the Kd is the constant that tells how readily two partners part at equilibrium. What is called koff is the first-order rate constant of dissociation. Regarding B1, in test [1], the kon was found to be 244000 M⁻¹ s⁻¹. Moreover, the Kd in test [2] is 0.16 nM. Also, in test [3], the Ka was determined as 6.34e+09 M⁻¹. Moreover, the koff in test [4] was 3.85e-05 s⁻¹.

B2: AMMO1 Fab (Fab, V domains shown)
VH: B1 VH with N1Q
VL: B1 VL
modifications: not checked
Consider B2, for which the Kd in test [5] came to 0.12 nM. Also, the Ka in test [6] worked out at 8.12e+09 M⁻¹.
